Experimental data as given in US20220056133A1.

Experiments:
[1] = biological target: TRBV9 family TCR on human peripheral blood T lymphocytes (human); experiment: flow cytometry sorting of human peripheral blood mononuclear cells stained with MA-042-FITC, CD3-eFluor405 and CD45-PC5 at 100 ng/ml; dot plot of MA-042 against CD3
[2] = biological target: TRBV9 family TCR on human peripheral blood T lymphocytes (human)
[3] = biological target: human antigen (immobilised on AR2G sensors in the Octet assay of Example 2) (human); experiment: BLI (OctetRed 96), antigen immobilised on AR2G sensors, antibody in solution, 1:1 global model, 30 C
[4] = biological target: TRBV9 family TCR on human peripheral blood T lymphocytes (human); experiment: cell-based or functional assay
[5] = biological target: TRBV9 family TCR on human peripheral blood T lymphocytes (human); experiment: FACS sorting with MA-042-FITC, then sequencing of the TCR beta-chain repertoire of the sorted cells

- MA-042+ (share of cells in the MA-042+ gate) [1]: 1.9%
- Kd [3]: < 1 pM
- koff [3]: < 1e-07 s⁻¹
- kon [3]: 319000 M⁻¹ s⁻¹
- antibody concentration at which complete elimination of the target population was detected [4]: 500 ng/mL
- enrichment of the sorted fraction's TCR beta-chain libraries with TRBV9-encoded sequences [5]: 93%
B1: antibody MA-042 (antibody, human IgG1, kappa, V domains shown)
VH: QVQLVQSGSELKKPGESVKVSCKASGYTFTDYLVHWVRQAPGQGLEWMGWINTYTGTPTYADDFEGRFVFSLDTSVSTANLQISSLKAEDTAVYFCARSWRRGLRGIGFDYWGQGTLVTVSS
VL: DIQMTQSPYSLSASVGDRVTITCKASKSINKYLAWFQQKPGKPNKLLIYDGSTLQSGVPSRFSGSGSGTDFTLTISSLEPEDFATYYCQQHNEYPPTFGQGTKLEIKR
- share of CD3+ cells in the TRBV9+ (MA-042-FITC positive) gate after the cytotoxicity assay with 1 ng/ml MA-042 (right panel) [2]: 2%
- share of CD3+ cells in the TRBV9+ (MA-042-FITC positive) gate after the cytotoxicity assay with 1 ug/ml MA-042 (left panel) [2]: 0.3%
- EC50 in a cytotoxicity assay (elimination of TRBV9-positive cells among CD3+ lymphocytes, flow cytometry after 72 hours) [4]: 0.1 µg/mL
